# Biological target: biotinylated human ACE2 ectodomain, which contains its natural dimerization domain (ACROBiosystems AC2-H82E6) (human) (UniProt Q9BYF1)
# Test: FACS
# Sequence of biotinylated human ACE2 ectodomain, which contains its natural dimerization domain (ACROBiosystems AC2-H82E6) (human) (Q9BYF1 18-740): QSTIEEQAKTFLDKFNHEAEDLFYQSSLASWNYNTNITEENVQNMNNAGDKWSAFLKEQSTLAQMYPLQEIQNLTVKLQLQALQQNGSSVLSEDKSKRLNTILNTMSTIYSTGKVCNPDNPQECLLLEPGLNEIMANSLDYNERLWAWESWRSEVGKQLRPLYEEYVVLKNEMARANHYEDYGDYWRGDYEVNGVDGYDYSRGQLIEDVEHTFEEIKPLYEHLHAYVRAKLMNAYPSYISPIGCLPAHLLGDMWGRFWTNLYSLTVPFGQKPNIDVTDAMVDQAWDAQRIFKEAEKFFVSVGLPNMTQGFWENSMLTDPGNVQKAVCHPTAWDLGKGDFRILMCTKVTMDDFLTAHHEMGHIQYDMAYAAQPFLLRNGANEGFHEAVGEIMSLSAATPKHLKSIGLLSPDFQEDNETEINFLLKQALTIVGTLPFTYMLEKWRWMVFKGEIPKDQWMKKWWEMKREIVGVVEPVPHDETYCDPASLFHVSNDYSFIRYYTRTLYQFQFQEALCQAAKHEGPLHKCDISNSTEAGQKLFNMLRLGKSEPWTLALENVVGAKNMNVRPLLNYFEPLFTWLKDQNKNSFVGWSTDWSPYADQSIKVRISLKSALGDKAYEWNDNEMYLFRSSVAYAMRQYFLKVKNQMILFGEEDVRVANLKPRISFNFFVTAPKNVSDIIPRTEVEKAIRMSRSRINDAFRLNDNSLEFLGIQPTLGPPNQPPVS
row,Substance,Kd
1,"ZC45 RBD, yeast-displayed",> 1000 nM
2,"WIV1 RBD, yeast-displayed",0.017 nM
3,"ZXC21 RBD, yeast-displayed",> 1000 nM

# Source: article doi:10.1101/2020.06.17.157982
